{"source": "patent US20210121565A1", "about": "(Eli Lilly, published 2021)", "key": {"[1]": {"target": "T1, aggregate tau fibrils purified from AD brain homogenates (MC1-affinity purified) (human, UniProt P10636-8 2-441, limits assumed)", "T1 construct": "Brain-derived material coated on ELISA plates at 0.7 ug/ml total tau; also called Purified AD Tau Fibrils; purified tau fibrils", "T1 sequence (P10636 other isoform, or with tags, fused parts or gaps limits assumed)": "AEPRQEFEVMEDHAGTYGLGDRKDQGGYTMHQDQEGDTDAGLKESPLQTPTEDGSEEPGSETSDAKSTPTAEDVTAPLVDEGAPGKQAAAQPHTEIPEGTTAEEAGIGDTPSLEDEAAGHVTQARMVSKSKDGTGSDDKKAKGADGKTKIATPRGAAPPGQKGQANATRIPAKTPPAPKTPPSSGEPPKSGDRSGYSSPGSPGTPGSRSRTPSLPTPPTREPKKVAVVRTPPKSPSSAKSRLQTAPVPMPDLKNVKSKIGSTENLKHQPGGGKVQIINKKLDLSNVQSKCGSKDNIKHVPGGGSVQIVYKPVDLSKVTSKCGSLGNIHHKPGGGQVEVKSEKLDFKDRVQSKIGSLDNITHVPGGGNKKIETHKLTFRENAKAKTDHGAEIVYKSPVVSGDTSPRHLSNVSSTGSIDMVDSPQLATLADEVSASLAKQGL", "test": "ELISA, purified AD tau fibrils coated on plate, anti-human IgG-HRP detection", "protocol": "Enzyme-Linked Immunosorbant Assay (ELISA) is used to determine relative binding affinity of the exemplified anti-Tau antibody (having both HCs of SEQ ID NO.2 and both LCs of SEQ ID NO.1) to aggregate tau fibrils from AD brain homogenates. AD brain homogenates are prepared from approx. 80 g of cortex from brain of AD patients. Briefly, buffer (TBS/1 mM PMSF/1× Complete® protease inhibitor cocktail (Roche, p/n. 11 697 498 001) and phosphatase inhibitor (ThermoFischer, p/n. 78428)) is added to the AD brain tissue at about 10 ml/1 g (tissue). Tissue is homogenized using a handheld Kinematica Polytron at speed 6-7. Tissue is then further homogenized using Parr Bomb (Parr Instrument, p/n. 4653) at 1500 psi of nitrogen for 30 mins. Homogenate is spun at 28,000 g (J14 Beckman rotor) for 30 min at 4° C. Supernatant is collected, pooled and run over a 4 cm high guard column of Sepharose 400 Superflow to remove larger debris, then run over 25 ml MC1-Affigel 10 column at a flow rate of 50-60 ml per hour, in order to purify MC1-binding tau fibrils. To maximize the recovery of purification, supernatants are recycled through MC-1 column over 18-20 hours at 4° C. […] The concentration of tau within the tau fibrils purified from AD brain homogenate is measured by sandwich ELISA using DA-9 capture antibody and CP27 detection antibody. […]"}, "[2]": {"target": "T2, human monomeric (native or non-aggregate) tau (human, UniProt P10636 2-758)", "T2 construct": "No tag or expression host is stated; also called Monomeric Tau; monomeric tau", "T2 sequence (P10636 other isoform, or with tags, fused parts or gaps limits assumed)": "as above", "test": "SPR (Biacore 2000, 25 C), antibody captured on protein A, tau as analyte, steady state fit", "protocol": "(§1) Surface Plasmon Resonance (SPR) assay, measured with a BIACORE® 2000 instrument (primed with HBS-EP+running buffer (GE Healthcare, 10 mM Hepes pH7.4+150 mM NaCl+3 mM EDTA+0.05% surfactant P20) at 25° C.), is used to measure binding of an exemplified anti-Tau antibody (having both HCs of SEQ ID NO.2 and both LCs of SEQ ID NO.1) to both human monomeric (e.g., native or non-aggregate) tau and human tau aggregates (both having the amino acid sequence as set forth in SEQ ID NO.13).\n(§2) Except as noted, all reagents and materials are from BIACORE® AB (Upsala, Sweden). A CMS chip containing immobilized protein A (generated using standard NHS-EDC amine coupling) on all four flow cells (FC) is used to employ a capture methodology. Antibody samples are prepared at 0.5 μg/mL by dilution into running buffer. […]\n(§3) Data of binding to tau aggregate is processed using standard double-referencing and fit to a 1:1 binding model using Biacore 2000 Evaluation software, version 4.1, to determine the association rate (kₒₙ, M⁻¹s⁻¹ units), dissociation rate (koff, s⁻¹ units), and Rₘₐₓ (RU units). The equilibrium dissociation constant (KD) was calculated from the relationship KD=koff/kₒₙ, and is in molar units. Data of binding to monomeric tau cannot be determined accurately by SPR as described above due to rapid on- and off-rates. […]"}, "[3]": {"target": "T3, human tau aggregates (amino acid sequence of SEQ ID NO.13) (human, UniProt P10636 2-758)", "T3 construct": "also called fibril tau; tau fibril aggregate", "T3 sequence (P10636 other isoform, or with tags, fused parts or gaps limits assumed)": "as above", "test": "SPR (Biacore 2000, 25 C), antibody captured on protein A, tau aggregate as analyte, 1:1 fit", "protocol": "as §1, §2, §3"}, "[4]": {"target": "T3, human tau aggregates (amino acid …)", "test": "SPR (Biacore 2000, 25 C), antibody captured on protein A, tau aggregate as analyte, KD=koff/kon, not normalized for avidity", "protocol": "as §1, §2, §3"}}}
{"binder": "Exemplified anti-Tau antibody (having both HCs of SEQ ID NO.2 and both LCs of SEQ ID NO.1) (antibody, human IgG4 S228P, kappa, F234A L235A, V domains shown, It was expressed in CHO cells; also called Exemplified anti-Tau mAb; exemplified tau monoclonal antibody) VH: EVQLVQSGAEVKKPGESLKISCKGSGYTFSNYWIEWVRQMPGKGLEWMGEILPGSDSIKYEKNFKGQVTISADKSISTAYLQWSSLKASDTAMYYCARRGNYVDDWGQGTLVTVSS VL: EIVLTQSPGTLSLSPGERATLSCRSSQSLVHSNQNTYLHWYQQKPGQAPRLLIYKVDNRFSGIPDRFSGSGSGTDFTLTISRLEPEDFAVYYCSQSTLVPLTFGGGTKVEIKR", "values": [{"measurement": "EC50", "setting": "[1]", "value": 0.0068, "unit": "nM"}, {"measurement": "Kd", "setting": "[2]", "value": 235, "unit": "nM"}, {"measurement": "koff", "setting": "[3]", "value": "< 1e-05", "unit": "s⁻¹"}, {"measurement": "kon", "setting": "[3]", "value": 45900, "unit": "M⁻¹ s⁻¹"}, {"measurement": "Kd", "setting": "[4]", "value": "< 0.22", "unit": "nM"}]}
